# In publication PMC9879097, “Borrelia burgdorferi DnaA and the Nucleoid-Associated Protein EbfC Coordinate Expression of the dnaX-ebfC Operon”:
# T1: EbfC (Borrelia burgdorferi, UniProt O51418 1-99)
# T1 sequence: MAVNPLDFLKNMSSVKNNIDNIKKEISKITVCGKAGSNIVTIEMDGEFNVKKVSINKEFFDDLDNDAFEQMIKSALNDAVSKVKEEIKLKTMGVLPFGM
# T2: GST-DnaA (Borrelia burgdorferi, UniProt P33768 1-486)
# T2 sequence: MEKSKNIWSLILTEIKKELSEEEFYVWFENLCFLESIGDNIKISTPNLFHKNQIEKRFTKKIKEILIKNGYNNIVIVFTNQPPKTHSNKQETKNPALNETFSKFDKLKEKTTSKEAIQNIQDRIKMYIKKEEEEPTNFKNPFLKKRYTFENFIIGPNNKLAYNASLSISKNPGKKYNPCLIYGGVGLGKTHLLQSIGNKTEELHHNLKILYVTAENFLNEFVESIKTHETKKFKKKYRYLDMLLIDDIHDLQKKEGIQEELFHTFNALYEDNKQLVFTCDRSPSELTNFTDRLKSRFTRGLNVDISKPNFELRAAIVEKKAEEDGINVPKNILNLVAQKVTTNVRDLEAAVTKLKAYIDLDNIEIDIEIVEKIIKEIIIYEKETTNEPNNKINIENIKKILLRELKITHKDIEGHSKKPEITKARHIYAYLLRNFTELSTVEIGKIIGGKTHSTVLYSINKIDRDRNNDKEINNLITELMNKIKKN
# Experiments:
# EbfC [1] = molecular target: T1, EbfC; experiment: competition; 50x excess vs N13; 50 mM Tris-HCl (pH not stated), 50 mM KCl, 1 mM EDTA, 1 mM PMSF, 1 mM DTT, 0.01% Tween 20, 10% glycerol; room temperature 15 min; GST-DnaA reactions with 1 mM MgCl2 and 1 mM ATP or ADP; 100 nM DNA or 20 nM RNA probe; settings: protein: recombinant; tags: N-terminal 6xHis (pET200); chain copies: 2
# EbfC [2] = molecular target: T1, EbfC; experiment: EMSA; poly(dI-dC) 2.5 ng/uL; 3.75-30 uM EbfC; 50 mM Tris-HCl (pH not stated), 50 mM KCl, 1 mM EDTA, 1 mM PMSF, 1 mM DTT, 0.01% Tween 20, 10% glycerol; room temperature 15 min; GST-DnaA reactions with 1 mM MgCl2 and 1 mM ATP or ADP; 100 nM DNA or 20 nM RNA probe; settings: protein: recombinant; tags: N-terminal 6xHis (pET200); chain copies: 2; label: 5' IRDye800 on strand 1; blunt
# GST-DnaA = molecular target: T2, GST-DnaA; experiment: competition; ATP, Mg2+; 10x excess vs N1; 50 mM Tris-HCl (pH not stated), 50 mM KCl, 1 mM EDTA, 1 mM PMSF, 1 mM DTT, 0.01% Tween 20, 10% glycerol; room temperature 15 min; GST-DnaA reactions with 1 mM MgCl2 and 1 mM ATP or ADP; 100 nM DNA or 20 nM RNA probe; settings: protein: recombinant; tags: N-terminal GST; blunt
# EbfC [3] = molecular target: T1, EbfC; experiment: competition; 50x excess vs N13; only smaller complex eliminated; 50 mM Tris-HCl (pH not stated), 50 mM KCl, 1 mM EDTA, 1 mM PMSF, 1 mM DTT, 0.01% Tween 20, 10% glycerol; room temperature 15 min; GST-DnaA reactions with 1 mM MgCl2 and 1 mM ATP or ADP; 100 nM DNA or 20 nM RNA probe; settings: protein: recombinant; tags: N-terminal 6xHis (pET200); chain copies: 2
# EbfC [4] = molecular target: T1, EbfC; experiment: EMSA; 5-15 uM EbfC; two complexes; 50 mM Tris-HCl (pH not stated), 50 mM KCl, 1 mM EDTA, 1 mM PMSF, 1 mM DTT, 0.01% Tween 20, 10% glycerol; room temperature 15 min; GST-DnaA reactions with 1 mM MgCl2 and 1 mM ATP or ADP; 100 nM DNA or 20 nM RNA probe; settings: protein: recombinant; tags: N-terminal 6xHis (pET200); chain copies: 2; label: 5' Alexa Fluor 647 (probe)
Binder,binding result (GST-DnaA),also measured
AGGCAAAAGGAUUUGCCAAAGUCAGAAAUU (ssRNA) [flaB RNA competitor],,binding result (EbfC [1]): no binding
"probe 2, consensus EbfC motif (dsDNA) DNA 1: GGATTTGTCTTTTTGTAACTTTCAATTTTA DNA 2: TAAAATTGAAAGTTACAAAAAGACAAATCC",,binding result (EbfC [2]): binds
Competitor 5 (C5) (dsDNA) DNA 1: AAATGCAATGTTTTGCTTTATGTTAAGATATGGATTTGTCTTTTT DNA 2: AAAAAGACAAATCCATATCTTAACATAAAGCAAAACATTGCATTT,no binding,
GGAUUUGUCUUUUUGUAACUUUCAAUUUUA (ssRNA) [unlabeled dnaX-ebfC RNA competitor],,binding result (EbfC [3]): binds
Competitor 6 (C6) (dsDNA) DNA 1: TTTCAATTTTATTATATTTTTTATGTTTCATAAAATTCTTTTAAA DNA 2: TTTAAAAGAATTTTATGAAACATAAAAAATATAATAAAATTGAAA,no binding,
"GGAUUUGUCUUUUUGUAACUUUCAAUUUUA (ssRNA) [EbfC RNA, dnaX-ebfC 5' UTR 30-mer]",,binding result (EbfC [4]): binds
Competitor 3 (C3) (dsDNA) DNA 1: TTCATAAAATTCTTTTAAAGTAATAGCTCTGAGATATAAATATGT DNA 2: ACATATTTATATCTCAGAGCTATTACTTTAAAAGAATTTTATGAA,binds,
Competitor 2 (C2) (dsDNA) DNA 1: GGATTTGTCTTTTTGTAACTTTCAATTTTATTATATTTTTTATGT DNA 2: ACATAAAAAATATAATAAAATTGAAAGTTACAAAAAGACAAATCC,binds,
